Measurements from article PMC12576456.

What was measured:
[1] = target: YFT1-C^S927D/S1118D (cYFP fusion) (tomato (Solanum lycopersicum)); assay: split reporter (BiFC, NanoBiT); BiFC: nYFP-SlTFT1 with YFT1-C derivatives fused to cYFP, transiently co-transformed into N. benthamiana leaves via Agrobacterium; YFP by confocal microscopy, intensity by ImageJ
[2] = target: YFT1-C^S927A/S1118A (cYFP fusion) (tomato (Solanum lycopersicum)); assay: as above

nYFP-SlTFT1 (natural protein)
BiFC YFP fluorescence, percent of YFT1-C [1]: 114% | BiFC YFP fluorescence, percent of YFT1-C [2]: 67%
